Measurements from the supplement of paper PMC12042874.
± gives the uncertainty stated by the source.

Assay: amyloid nucleation score (Sup35N fusion, yeast selection) (log enrichment); library NNK2; higher = more nucleation; inactive = no reads after selection
Summary of the method: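 Output and input plasmid inserts were sequenced by Illumina after psi-negative yeast carrying Sup35N fused to peptides of 20 random codons had been induced 24 hours with 100 μM copper sulfate and grown 7 days at 30°C on medium lacking adenine and uracil. The nucleation score is the DiMSum log enrichment of output over input reads, centred on the mode score of non-aggregating sequences. Sequences with under 100 input reads were excluded.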
With WVPRRSSLCGAILYLGTKSM the amyloid nucleation score was -0.965 ± 0.78. For VYYAGSK, the amyloid nucleation score was -0.562 ± 1.1. In the case of FMVILYLDSLSLPWNWIVFG, the amyloid nucleation score is reported as 0.098 ± 0.54. With YPLCARILLNKDLWDGYLNS the amyloid nucleation score was “inactive”. LQYIY gave an amyloid nucleation score of -0.533 ± 0.78. For SGPVERFLILLIRCMNRLYV, the amyloid nucleation score was -1.19 ± 0.44. In the case of TQLSV, the amyloid nucleation score is reported as -0.046 ± 1. In the case of GWVKTLEGLLMCLVVCNTVM, the amyloid nucleation score is reported as 2.98 ± 0.12. In the case of GYCYYVPFMVGP, the amyloid nucleation score is reported as 0.817 ± 0.8. For SGNIIFNRRMRRAALEWDIT, the amyloid nucleation score was -0.125 ± 0.63. ILALNWLFSICST gave an amyloid nucleation score of 6.903 ± 0.035. Substance LVSQLPVDFMVTFDILTVEI has an amyloid nucleation score of -0.184 ± 1.1. Substance TIDWTMSHCMI has an amyloid nucleation score of -0.055 ± 0.56. GILMISDAYDIREYFKLVTF showed an amyloid nucleation score of -1.32 ± 0.62. Work on FGVIICAMSCQKD yielded an amyloid nucleation score of 7.501 ± 0.026. YWGIRVCSDFGIPEFRTS showed an amyloid nucleation score of 2.05 ± 0.12. Work on TYDWEFFNDYYQM yielded an amyloid nucleation score of 0.161 ± 0.77. FTAFWGYSTSVFHMDMCLRK gave an amyloid nucleation score of 2.17 ± 0.071. GTTCGSSCRVVSLMKENVGA showed an amyloid nucleation score of -0.367 ± 0.48. For VVSSSTSFTAGTRVM, the amyloid nucleation score was “inactive”. Work on FSFLKLIADPATLVIGTDSW yielded an amyloid nucleation score of -0.492 ± 0.3. Substance EWVRWLVVLNLRSNAGNYDI has an amyloid nucleation score of -0.953 ± 0.54. GIIDMSRLVMHQITEPLLSQ showed an amyloid nucleation score of 0.092 ± 0.32. In the case of RCELSRRGTSLRTWRWARNG, the amyloid nucleation score is reported as 1.46 ± 0.17. Substance SSLVWLKMNGNGTKTVFMN has an amyloid nucleation score of 1.24 ± 0.14. Work on NIRVNDCVRHPSGDVQARVS yielded an amyloid nucleation score of -0.014 ± 0.35. SYSYFLELVSYKFSVVFLSI gave an amyloid nucleation score of 0.715 ± 0.58. With NITLYFKRSLDLFGEPMWTQ the amyloid nucleation score was 1.53 ± 0.16. For FRYFSVP, the amyloid nucleation score was -0.52 ± 0.36. For TNTLMGPFWLSWSNVQPNRS, the amyloid nucleation score was -0.787 ± 0.54. With NSLHSDSVLIKERDADKSTR the amyloid nucleation score was 1.73 ± 0.14. For IMHCVHKSRILSSVTKIKEP, the amyloid nucleation score was “inactive”. For QCLIDWSFTFLLNVVLDYFY, the amyloid nucleation score was “inactive”. For TLLWSRTMYVGIPSYRYGGA, the amyloid nucleation score was 0.676 ± 0.8. For CIFYKVGLFFPCWYIVSVLS, the amyloid nucleation score was -2.03 ± 0.75. With ICSKRIFFSA the amyloid nucleation score was -0.772 ± 1.1. In the case of WHTYSRCSFRKRAGSLVAFP, the amyloid nucleation score is reported as 0.365 ± 0.28. In the case of DTIILC, the amyloid nucleation score is reported as “inactive”. For QYWTNRCKDWERVSRKPLKL, the amyloid nucleation score was “inactive”. Substance GNVLFAFTFSVCLKFLAFVF has an amyloid nucleation score of -0.407 ± 0.64. GREPESF gave an amyloid nucleation score of 1.72 ± 0.13. For IIVNMKLVDTS, the amyloid nucleation score was 0.138 ± 1.1. MYIGVL showed an amyloid nucleation score of -0.065 ± 0.45. VFACLNVLSLMNEDFFVMSD gave an amyloid nucleation score of -0.708 ± 0.54. Substance AYRQMYTGNVR has an amyloid nucleation score of 3.97 ± 0.067. HRLQLPHHRKGKWVLLMWGV showed an amyloid nucleation score of -0.44 ± 0.41. In the case of SEVCNCVGLGSGCDVYGA, the amyloid nucleation score is reported as 3.17 ± 0.094. In the case of IFENI, the amyloid nucleation score is reported as “inactive”. THEIFMHSYY showed an amyloid nucleation score of -0.913 ± 1.1. In the case of YRVRCLHWHLIFDCNKKRSK, the amyloid nucleation score is reported as -0.331 ± 1.1. For GFHSCG, the amyloid nucleation score was 4.85 ± 0.067. HEECIGSCCYGRWSCGTTLW gave an amyloid nucleation score of 4.84 ± 0.054. In the case of EFIDLVD, the amyloid nucleation score is reported as “inactive”. Work on GFPVWVYYKMDLYCLSVKGI yielded an amyloid nucleation score of -0.672 ± 0.61. Substance NMNLVILDTHN has an amyloid nucleation score of 2.86 ± 0.13. For TTRAKHVHWYELHNVFMLQL, the amyloid nucleation score was 7.483 ± 0.054. Work on VSRAFNFSRCRRKISPALQC yielded an amyloid nucleation score of 0.135 ± 0.33. Work on ISETLASSVWRRCVSCGYVM yielded an amyloid nucleation score of 3.93 ± 0.075. Work on WSMSVLVSPHVMFKNAMEVL yielded an amyloid nucleation score of 0.22 ± 0.28. With CTLRAVMSIVRGYFRCYLVC the amyloid nucleation score was 0.255 ± 1.1. Work on CTKDTHNRVGHLRSHVDGSL yielded an amyloid nucleation score of 0.572 ± 0.8. Work on ADLSRRLGMFVVLCLGGWAW yielded an amyloid nucleation score of -0.326 ± 0.63. AINLGSDYKWSGMAFVKG showed an amyloid nucleation score of 0.285 ± 1. Substance LADSAYTPY has an amyloid nucleation score of -0.727 ± 0.54. In the case of MKAHVVVTLSCRYNLYGAPH, the amyloid nucleation score is reported as 4.52 ± 0.054. In the case of FAFKTLVWHRGVCRFPGARL, the amyloid nucleation score is reported as “inactive”. In the case of SKYGMFILGNRSNGDWFNMV, the amyloid nucleation score is reported as -0.673 ± 0.48. With RSGSQENKVSECAQDTTFSV the amyloid nucleation score was 0.367 ± 0.54. PRLPTQTITK showed an amyloid nucleation score of 1.53 ± 0.16. HPHKS gave an amyloid nucleation score of -0.325 ± 0.76. LNWFFLL gave an amyloid nucleation score of 0.937 ± 0.26. For NMRRYLIDMKGVEVLGFMCS, the amyloid nucleation score was “inactive”. LSHMFVTALIVIEKFCLTAL showed an amyloid nucleation score of 0.111 ± 0.39. Work on CLIAVNTKGRVVHVYGRTGG yielded an amyloid nucleation score of 3.53 ± 0.093. In the case of TGQSKDNQDSNMGVICLFYS, the amyloid nucleation score is reported as 4.389 ± 0.04. KMSVLG gave an amyloid nucleation score of -0.936 ± 0.64. Substance LKTQWQSPWVQMV has an amyloid nucleation score of -0.09 ± 0.48. Work on RNNRLTLVRVSFDVQCEPMV yielded an amyloid nucleation score of 0.468 ± 0.46. With FKSTNLMAWIFGMYIVFLGF the amyloid nucleation score was -0.08 ± 1. FCVIAQYAQVPMSCWGWLES gave an amyloid nucleation score of -0.191 ± 1.1. Work on RCSTGRVFSSLDEVLLSRWG yielded an amyloid nucleation score of 4.64 ± 0.048. With KSINSFYKRIDVVWGMRSQS the amyloid nucleation score was -0.984 ± 0.33. In the case of RLVTWGISQNRLAQLY, the amyloid nucleation score is reported as -0.001 ± 0.33. In the case of CFLGLYGDIASIFNQ, the amyloid nucleation score is reported as -0.889 ± 0.45. With QSMSNACFVMGTRCITKRAA the amyloid nucleation score was 4.633 ± 0.044. In the case of LYVCHKICSSCLKGW, the amyloid nucleation score is reported as -1.11 ± 0.61. Work on VLSTWWVSYAGTVFVRSEGT yielded an amyloid nucleation score of 3.58 ± 0.14. For DFNSDFAGLLLDTNKYYIHD, the amyloid nucleation score was -0.088 ± 1.1. Substance FNCEGLVNS has an amyloid nucleation score of -1.25 ± 0.64. YFQKGFDVARIHLSFTLVLY showed an amyloid nucleation score of -0.913 ± 1. Work on VNQFNVIIKD yielded an amyloid nucleation score of 3.33 ± 0.1. Work on VAFNGYLY yielded an amyloid nucleation score of -0.89 ± 0.48. YHMGDGLDVWGRDRSG showed an amyloid nucleation score of 0.901 ± 0.27. With IYVVMFSKRLNSNFW the amyloid nucleation score was -1.62 ± 0.62. KWFLGCRVDHRMRVRMCLQ showed an amyloid nucleation score of -0.292 ± 0.54. SRCIFVFYS showed an amyloid nucleation score of 8.165 ± 0.059. DFRKNANRLLRIYGVMRECA showed an amyloid nucleation score of -0.016 ± 0.19. For EEREFSAASPEAMELR, the amyloid nucleation score was “inactive”. ILLPSFRPLRQAAAG showed an amyloid nucleation score of -0.311 ± 0.79. Work on HDTESTLVTVLRAFLHRCDY yielded an amyloid nucleation score of 0.411 ± 0.56. With LLDMYNYTGIF the amyloid nucleation score was “inactive”. Work on FSIKPLGQKDIR yielded an amyloid nucleation score of 5.47 ± 0.073. With DQFRHLVTGSNNTIIKYSGV the amyloid nucleation score was “inactive”. Work on HRYEKSAHTVVWSIMVFS yielded an amyloid nucleation score of 0.033 ± 0.45. YMMMIDL showed an amyloid nucleation score of -1.26 ± 0.64. EKGNVGSQANTLVRCSGLTW showed an amyloid nucleation score of 1.17 ± 0.21. DDTLVVLPTRYLTPIWEMH gave an amyloid nucleation score of 2.4 ± 0.18. For WWNTGCVGLMCICTLFSGSR, the amyloid nucleation score was 8.985 ± 0.081. For CYCSSL, the amyloid nucleation score was -0.253 ± 0.2. SSFVNRWCEHYNGVVVSWLL gave an amyloid nucleation score of 0.236 ± 0.17. Substance LERGENEVRWTKKLRIKFVF has an amyloid nucleation score of -0.228 ± 1.1. DKWAFVRITRQEPPASIRMD showed an amyloid nucleation score of -0.939 ± 0.76. With RCVWINVGCSPILIGYAAHY the amyloid nucleation score was 8.728 ± 0.03. In the case of LLDINSCRFDMVISDMDNCP, the amyloid nucleation score is reported as “inactive”. Work on VCVQDRLRC yielded an amyloid nucleation score of 0.518 ± 0.5. For GINFVF, the amyloid nucleation score was -0.287 ± 0.79. In the case of ELRSLAGIVSWLSLRYPPTE, the amyloid nucleation score is reported as 2.42 ± 0.23. Work on MTIVVSDCTSVSDVFIGLGN yielded an amyloid nucleation score of 2.29 ± 0.076. ISFYFSAWDKTVQTRRYIDH gave an amyloid nucleation score of -0.356 ± 0.33. For VWQSYRFEEYFCICFQLASA, the amyloid nucleation score was 7.923 ± 0.031. NKCEIKLRKWQSSP showed an amyloid nucleation score of -0.337 ± 0.34. With LFFTFSKKFAR the amyloid nucleation score was 3.48 ± 0.068. In the case of YVMTFYTFTTIGGPGPWYGL, the amyloid nucleation score is reported as “inactive”. Substance GGLPGRVVEATCWYPVINVR has an amyloid nucleation score of 0.889 ± 0.47. With PLSGWYQYIRDGVLSVWLSV the amyloid nucleation score was 0.713 ± 0.74. GRSGFYCIHKMSVDTFIQKA showed an amyloid nucleation score of 4.27 ± 0.074. Substance SLAYRFRWKLGNKVKF has an amyloid nucleation score of 2.02 ± 0.1.
